In patent US20040180360, “Multivalent aptamer therapeutics with improved pharmacodynamic properties and methods of making and using the same” (published 2004):

Assays:
PDGF-BB [1] = target: T1, PDGF-BB (UniProt P01127 P01127:82-190); experiment: 10 or 100 nM splint DNA enhances affinity of bidentate aptamer; conditions: chain copies: 2 (inferred, homodimer); linker region hybridised to 40-nt splint oligonucleotide
Text: (§1) High molecular weight aptamer compositions capable of binding to platelet derived growth factor (PDGF) were produced using the following methods. A dimeric, or bidentate PDGF aptamer having the sequence shown in FIG. 4(A) was synthesized using standard reagents (oligonucleotides supplied by Integrated DNA Technologies, Coralville, Iowa). As shown in FIG. 4(B), the enhanced affinity of the bidentate aptamer to its target (either PDGF BB or AB) was greatest at higher protein concentrations where the binding conditions were 25° C. in 1×PBS with an RNA ligand concentration of <10 pM. […] This enhancement could reflect a splint-dependent reduction in rotational degrees of freedom within the linker region, leading to an increase in the effective concentration of the bidentate ligand. The addition of splint DNA to the monovalent aptamer to PDGF-BB had no effect on binding affinity (FIG. 5).

TGFβ2 = target: T2, TGFβ2 (UniProt P61812 P61812:303-414); experiment: competition; monodentate control with 5-bp extension; competes similarly to bidentates with linkers of 30 nt or more; conditions: chain copies: 2 (inferred, homodimer)
T2 sequence: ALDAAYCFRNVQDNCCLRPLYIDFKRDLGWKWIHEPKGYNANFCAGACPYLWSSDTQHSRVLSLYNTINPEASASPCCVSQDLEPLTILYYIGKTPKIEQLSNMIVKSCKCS

PDGF-BB [2] = target: T1, PDGF-BB; experiment: enhanced affinity vs monomer, greatest at higher protein concentration; 1x PBS, 25 C, ligand <10 pM; conditions: chain copies: 2 (inferred, homodimer)
Text: as §1

PDGF-AB = PDGF-AB (UniProt P04085;P01127 P04085:87-211,P01127:82-190); experiment: enhanced affinity stated for PDGF BB or AB; 1x PBS, 25 C, ligand <10 pM
Text: as §1

T1 sequence (P01127 82-190, one chain of several): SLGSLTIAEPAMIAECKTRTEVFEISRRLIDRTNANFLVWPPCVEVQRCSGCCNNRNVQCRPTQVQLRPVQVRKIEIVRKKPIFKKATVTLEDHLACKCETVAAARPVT
Sequence of PDGF-AB (P01127 82-190, chain 2 of 2, other chains not shown): as the sequence (P01127 82-190, one chain of several) above

B1: PDGF bidentate aptamer + splint DNA (structured_DNA)
DNA 1: TACTCAGGGCACTGCAAGCAATTGTGGTCCCAATGGGCTGAGTATGTGGTCTATGTCGTCGTTCGCTAGTAGTTCCTGGGCTGCACTCGAGGCGTAGAATTCCCCCGATGCGCGCTGTTCTTACTCAGGGCACTGCAAGCAATTGTGGTCCCAATGGGCTGAGTAT
DNA 2: AAAGGAATTCTACGCCTCGAGTGCAGCCCAGGAACTATTT
B1: binds (PDGF-BB [1]).

GCGCCGAGGUUAUUACAGAGUCUGUAUAGCUGUACUCGGCGC (ssRNA, 2'-F pyrimidines (inferred)) [ARC77 with 5-bp terminal extension]: binds (TGFβ2).

B2: PDGF bidentate aptamer (ssDNA)
DNA: B1 DNA 1
B2: binds (PDGF-BB [2]); binds (PDGF-AB).
